Experimental findings from patent US20040053822A1 are described below.

The first assay concerns the target HLA-A*0203 (human). The assay can be described thus: competition with 125I probe peptide, purified HLA.
Details: not given
The term IC50 denotes the concentration that gives 50% inhibition. Regarding MAGE3.174 11-mer … (peptide), the IC50 turned out to be 769 nM.

The target of another assay is HLA-A*0301 (human). The assay can be described thus: competition with 125I probe peptide, purified HLA.
Details: not given
Take MAGE2.71 11-mer … (peptide): the concentration for half-maximal inhibition (IC50) is 1000 nM.

The target of the next assay is HLA-A*6802 (human). Description: competition with 125I probe peptide, purified HLA.
Details: not given
As for MAGE2.112 11-mer … (peptide), the IC50 was determined as 7690 nM.
For the substance MAGE3.174 11-mer … (peptide), the IC50 was determined as 4490 nM.

In another assay the target is HLA-A2401 (human). The assay can be described thus: inhibition of 125I probe peptide binding to purified HLA.
Details: not given
For the substance “MAGE3 peptide, position 97, 9 amino acids”, the relative binding ratio (IC50 standard/IC50 peptide) was determined as 0.0049.
Regarding “MAGE3 peptide, position 300, 8 amino acids”, the relative binding ratio (IC50 standard/IC50 peptide) is 0.042.
With “MAGE3 peptide, position 270, 9 amino acids”, the relative binding ratio (IC50 standard/IC50 peptide) amounted to 0.0006.
With “MAGE3 peptide, position 195, 9 amino acids”, the relative binding ratio (IC50 standard/IC50 peptide) was 0.42.
As for “MAGE3 peptide, position 195, 10 amino acids”, the relative binding ratio (IC50 standard/IC50 peptide) is 0.05.
In the case of “MAGE3 peptide, position 142, 9 amino acids”, the relative binding ratio (IC50 standard/IC50 peptide) was determined as 0.53.
Take “MAGE3 peptide, position 221, 11 amino acids”: the relative binding ratio (IC50 standard/IC50 peptide) was found to be 0.026.
Same read-out and setting: then “MAGE3 peptide, position 300, 10 amino acids”, with 0.59.
As to “MAGE3 peptide, position 150, 11 amino acids”, the relative binding ratio (IC50 standard/IC50 peptide) is 0.091.
In the case of “MAGE3 peptide, position 268, 11 amino acids”, the relative binding ratio (IC50 standard/IC50 peptide) was found to be 0.0004.

The target of another assay is HLA-A*0301 (human). Description: competition vs 125I standard peptide, purified HLA-A*0301.
Details: not given
As for “MAGE3 peptide, position 115, 9 amino acids”, the relative binding ratio (ratio to standard peptide) came out at 0.0045.
For the substance “MAGE3 peptide, position 118, 10 amino acids”, the relative binding ratio (ratio to standard peptide) was 0.0014.
On the same count and under the same terms, then “MAGE3 peptide, position 267, 10 amino acids”, with 0.0032; and “MAGE3 peptide, position 118, 9 amino acids”, with 0.0016.
The same measure, in the same setting: for “MAGE3 peptide, position 115, 10 amino acids” the value was 0.0066.

The target in the next assay is HLA-A*0301 (human). The assay can be described thus: 125I-probe competition, purified HLA.
Details: not given
For the substance “MAGE2 and MAGE3 peptide, position 115, 9 amino acids”, the relative binding ratio was 0.0045.

A further assay addresses HLA-A*6802 (human). The assay can be described thus: competition with 125I probe peptide, purified HLA, gel filtration. As to conditions: scale: ratio. A general note: Size exclusion chromatography separates by hydrodynamic size, large species first.
Turning to “MAGE3 peptide, position 220, 9 amino acids”, the relative binding ratio came out at 0.0012.

The next assay addresses HLA-A*2401 (human). Description: inhibition of 125I-labelled standard peptide binding to purified HLA.
Details: not given
As to “MAGE3 300-309 (position 300, 10 amino acids) (peptide)”, the relative binding ratio (IC50 standard peptide / IC50 test peptide) came out at 0.59.
Take “MAGE3 300-307 (position 300, 8 amino acids) (peptide)”: the relative binding ratio (IC50 standard peptide / IC50 test peptide) is 0.042.
Take “MAGE3 150-160 (position 150, 11 amino acids) (peptide)”: the relative binding ratio (IC50 standard peptide / IC50 test peptide) worked out at 0.091.
The same measure, in the same setting: then “MAGE3 221-231 (position 221, 11 amino acids) (peptide)”, with 0.026.
Still for that read-out and setting: then “MAGE3 97-105 (position 97, 9 amino acids) (peptide)”, with 0.0049; and “MAGE3 195-203 (position 195, 9 amino acids) (peptide)”, with 0.42.
Consider “MAGE3 142-150 (position 142, 9 amino acids) (peptide)”, for which the relative binding ratio (IC50 standard peptide / IC50 test peptide) was 0.53.
Still for that read-out and setting: then “MAGE3 195-204 (position 195, 10 amino acids) (peptide)”, with 0.05.
